# Results published in the supplement of paper PMC7125110.
# ± gives the standard error. Variants at the floor of the assay were thinned out.
# B1: glmS ribozyme (parent)
# chain: AUAAAAGCGCCAGAACUACAGAAAUGUAGUUGACGAGGAGGAGGUUUAUCGAAUUUUCGGCGGAUGCCUCCAAA
# Columns and labels:
# Conditions in all cases: with glucosamine-6-phosphate
# glucosamine-6-phosphate [1] = variants of: B1; assay: self-cleavage kobs at 40 uM GlcN6P; higher = faster cleavage; RNA array
# Summary of the method: (§1)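 Barcoded glmS ribozyme variants on sequenced MiSeq chips were transcribed in situ by E. coli RNA polymerase and tracked through a hybridised Cy3 probe at 37 °C. Glucosamine-6-phosphate (40 μM to 10 mM) in HEPES/KCl/Mg(OAc)2 buffer was flowed in, and tiles were imaged over ~14 h. Signals were normalised to baseline and to non-cleaving reference variants; per-tile medians were fit to one- or two-exponential decays to give kobs. kcat and KM came from weighted Michaelis–Menten fits across concentrations.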
# glucosamine-6-phosphate [2] = variants of: B1; assay: self-cleavage kobs at 2500 uM GlcN6P; higher = faster cleavage; RNA array
# Summary of the method: as §1
# glucosamine-6-phosphate [3] = variants of: B1; assay: self-cleavage kobs at 160 uM GlcN6P; higher = faster cleavage; RNA array
# Summary of the method: as §1
# glucosamine-6-phosphate [4] = variants of: B1; assay: self-cleavage kobs at 640 uM GlcN6P; higher = faster cleavage; RNA array
# Summary of the method: as §1
# glucosamine-6-phosphate [5] = variants of: B1; assay: self-cleavage kobs at 10000 uM GlcN6P; higher = faster cleavage; RNA array
# Summary of the method: as §1
Variant,self-cleavage kobs at 40 uM GlcN6P (glucosamine-6-phosphate [1]) [s⁻¹],self-cleavage kobs at 2500 uM GlcN6P (glucosamine-6-phosphate [2]) [s⁻¹],self-cleavage kobs at 160 uM GlcN6P (glucosamine-6-phosphate [3]) [s⁻¹],self-cleavage kobs at 640 uM GlcN6P (glucosamine-6-phosphate [4]) [s⁻¹],self-cleavage kobs at 10000 uM GlcN6P (glucosamine-6-phosphate [5]) [s⁻¹]
G7A A14C G32U G40A,< 1e-05,< 1e-05,–,–,–
U31C G44A,< 1e-05,–,< 1e-05,–,–
A12C C50G,5.75e-05 ± 1.5e-05,8.38e-05 ± 1.9e-05,0.000244 ± 8.9e-05,5.32e-05 ± 1.5e-05,–
G13C G59U,< 1e-05,< 1e-05,< 1e-05,< 1e-05,–
A14U G37U G59U C61A,< 1e-05,–,–,–,–
U30A A33G A48C C67A,< 1e-05,–,–,–,< 1e-05
A6G U57C C70A C71U,< 1e-05,–,< 1e-05,–,–
C11G G60U,< 1e-05,–,< 1e-05,< 1e-05,< 1e-05
C8A U31A C50G A53U C70A,0.000306 ± 7.3e-05,–,–,–,0.000515 ± 0.00016
G29U G44C U46A,< 1e-05,–,–,–,–
C8A G35C C67A,< 1e-05,–,< 1e-05,< 1e-05,–
A14C C68U C71U,< 1e-05,–,–,–,–
C16G A48G C68U,< 1e-05,–,–,–,< 1e-05
A36C G44U U54G G66A C71A,< 1e-05,–,–,–,< 1e-05
A36C A39C C58U C61A C71A,< 1e-05,–,–,–,–
C8A C10A G44U U46A C67A,< 1e-05,< 1e-05,–,–,–
C10G C70U,< 1e-05,–,–,–,–
G43C U69C,< 1e-05,–,< 1e-05,–,–
C8U C58U C67U U69C,0.00084 ± 0.00041,–,–,–,0.000669 ± 0.00018
G41U G44C,< 1e-05,< 1e-05,< 1e-05,< 1e-05,< 1e-05
G35C U46G A48G U65C C68A,< 1e-05,–,–,–,–
A36G A39U C68U,< 1e-05,–,–,–,< 1e-05
A6G G38U U54C,< 1e-05,< 1e-05,–,< 1e-05,–
C10A C34G A42G C70G,< 1e-05,–,–,–,< 1e-05
G9A G13C U45G U57A,< 1e-05,–,–,–,< 1e-05
A6G A14U U31C C50G,4.57e-05 ± 2.1e-05,–,–,–,0.000265 ± 9.7e-05
G9A A12U G13C G40C,< 1e-05,–,–,–,< 1e-05

Variant,self-cleavage kobs at 40 uM GlcN6P (glucosamine-6-phosphate [1]) [s⁻¹],self-cleavage kobs at 2500 uM GlcN6P (glucosamine-6-phosphate [2]) [s⁻¹],self-cleavage kobs at 160 uM GlcN6P (glucosamine-6-phosphate [3]) [s⁻¹],self-cleavage kobs at 640 uM GlcN6P (glucosamine-6-phosphate [4]) [s⁻¹],self-cleavage kobs at 10000 uM GlcN6P (glucosamine-6-phosphate [5]) [s⁻¹]
A52C G60A G66A,< 1e-05,–,< 1e-05,< 1e-05,–
A33U A36C A39C G41C G44A U46G G51U C58U A64U,< 1e-05,–,–,–,< 1e-05
U30C G40C U49G G51A,< 1e-05,–,–,–,< 1e-05
C11U C50G,0.000107 ± 2.2e-05,0.000104 ± 2.1e-05,0.000271 ± 6.5e-05,0.000371 ± 9e-05,–
A36C G63A,< 1e-05,–,–,< 1e-05,–
A36C G41C U69A,< 1e-05,–,–,–,–
A6G G51C,< 1e-05,< 1e-05,< 1e-05,< 1e-05,–
G38U G43C A64U,< 1e-05,< 1e-05,–,–,–
U55A U56G,0.000292 ± 4.8e-05,0.00771 ± 0.0013,0.000454 ± 8.8e-05,0.00368 ± 0.00046,0.0097 ± 0.0019
C11U U49G C58U G60C,< 1e-05,< 1e-05,–,–,–
A15U A33G G38C G40C C68U,< 1e-05,–,–,–,< 1e-05
A42G G63U,< 1e-05,< 1e-05,< 1e-05,< 1e-05,–
C11A G51U A52G U57A G66C C70A,5.04e-05 ± 1.9e-05,–,–,–,5e-05 ± 1.4e-05
G43A C61A,< 1e-05,–,< 1e-05,< 1e-05,–
G13A A36G,< 1e-05,< 1e-05,< 1e-05,< 1e-05,< 1e-05
C34A A42G,< 1e-05,< 1e-05,< 1e-05,< 1e-05,–
C8U G32C,< 1e-05,< 1e-05,< 1e-05,< 1e-05,< 1e-05
A6G U56A U65C,< 1e-05,–,–,–,–
C11G C58A A64G,< 1e-05,–,–,–,–
U46G C68G C71G,9.54e-05 ± 3.1e-05,–,–,–,–
G7U U31C C68G,0.000102 ± 3.2e-05,–,–,–,–
A6C A14C U45G U57C,< 1e-05,–,–,–,< 1e-05
G40U G51A U54A A64U,< 1e-05,–,–,–,–
G35U G62C,< 1e-05,< 1e-05,< 1e-05,< 1e-05,< 1e-05
G13C C34A,< 1e-05,–,–,< 1e-05,< 1e-05
G29A C34A G40U G41C G44U U49G C50A C71U,< 1e-05,–,–,–,< 1e-05
